The target in assay [1] is T1, Full-length Rok1, His-tagged (Saccharomyces cerevisiae (strain ATCC …, UniProt P45818)).
T1 chain: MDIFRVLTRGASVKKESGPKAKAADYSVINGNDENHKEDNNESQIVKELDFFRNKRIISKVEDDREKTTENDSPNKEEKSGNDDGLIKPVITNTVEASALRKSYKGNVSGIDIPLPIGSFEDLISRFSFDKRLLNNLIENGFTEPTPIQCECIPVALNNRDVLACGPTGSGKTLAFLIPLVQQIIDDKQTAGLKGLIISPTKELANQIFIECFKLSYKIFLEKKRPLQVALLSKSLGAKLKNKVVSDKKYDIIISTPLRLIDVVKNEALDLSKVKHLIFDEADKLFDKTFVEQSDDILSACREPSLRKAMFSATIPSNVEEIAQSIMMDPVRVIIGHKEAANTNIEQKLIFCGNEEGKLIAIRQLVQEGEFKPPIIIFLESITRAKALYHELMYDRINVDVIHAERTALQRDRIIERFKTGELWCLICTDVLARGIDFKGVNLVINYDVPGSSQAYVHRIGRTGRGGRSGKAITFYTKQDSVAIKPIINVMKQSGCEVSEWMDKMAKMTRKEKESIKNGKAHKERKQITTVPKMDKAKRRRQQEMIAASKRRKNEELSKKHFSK
Description: Ni-NTA pull-down, Coomassie SDS-PAGE; 2 mM ATP present.

Assay [2] has as its target T2, Full-length Has1, His-tagged (Saccharomyces cerevisiae (strain ATCC …, UniProt Q03532)). The assay can be described thus: Ni-NTA pull-down, Coomassie SDS-PAGE.
For assay [3], the target named is T2, Full-length Has1, His-tagged. Description: Ni-NTA pull-down and co-expression, SDS-PAGE.

T2 sequence (Q03532 whole entry): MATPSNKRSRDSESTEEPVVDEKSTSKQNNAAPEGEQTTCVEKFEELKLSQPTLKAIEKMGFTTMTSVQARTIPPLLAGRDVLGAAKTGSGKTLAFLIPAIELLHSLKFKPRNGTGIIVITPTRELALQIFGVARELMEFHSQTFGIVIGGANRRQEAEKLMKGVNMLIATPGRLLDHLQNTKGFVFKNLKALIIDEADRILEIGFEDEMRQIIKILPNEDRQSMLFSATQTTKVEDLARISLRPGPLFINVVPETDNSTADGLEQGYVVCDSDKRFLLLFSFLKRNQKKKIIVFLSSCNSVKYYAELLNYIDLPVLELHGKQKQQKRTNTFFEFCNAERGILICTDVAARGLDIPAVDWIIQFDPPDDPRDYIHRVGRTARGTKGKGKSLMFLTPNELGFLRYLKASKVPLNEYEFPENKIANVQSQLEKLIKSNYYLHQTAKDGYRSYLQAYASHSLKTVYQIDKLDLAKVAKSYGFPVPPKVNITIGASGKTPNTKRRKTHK

B1: Rrp5 (1083–1343), the last 3 S1 domains only (protein)
chain: STIKVGDELPGRVLKIAEKYVLLDLGNKVTGISFITDALNDFSLTLKEAFEDKINNVIPTTVLSVDEQNKKIELSLRPATAKTRSIKSHEDLKQGEIVDGIVKNVNDKGIFVYLSRKVEAFVPVSKLSDSYLKEWKKFYKPMQYVLGKVVTCDEDSRISLTLRESEINGDLKVLKTYSDIKAGDVFEGTIKSVTDFGVFVKLDNTVNVTGLAHITEIADKKPEDLSALFGVGDRVKAIVLKTNPEKKQISLSLKASHFSKE
As for B1, the binding result in assay [1] and in assay [2] was “no binding” in each case.

B2: Rrp5 (1400–1729), the TPR region alone (protein)
chain: GLSLSAGFDWTASILDQAQEEEESDQDQEDFTENKKHKHKRRKENVVQDKTIDINTRAPESVADFERLLIGNPNSSVVWMNYMAFQLQLSEIEKARELAERALKTINFREEAEKLNIWIAMLNLENTFGTEETLEEVFSRACQYMDSYTIHTKLLGIYEISEKFDKAAELFKATAKKFGGEKVSIWVSWGDFLISHNEEQEARTILGNALKALPKRNHIEVVRKFAQLEFAKGDPERGRSLFEGLVADAPKRIDLWNVYVDQEVKAKDKKKVEDLFERIITKKITRKQAKFFFNKWLQFEESEGDEKTIEYVKAKATEYVASHESQKADE
With B2, in assay [3], the binding result is “no binding”.

Source of the values: paper PMC6168700 (2018).
